Measurements from patent US20230331827A1, “POTASSIUM CHANNEL INHIBITORS” (priority 2017, published 2023).

Experiments:
huKv1.3 = target: T1, huKv1.3 (Homo sapiens, UniProt P22001); experiment: QPatch automated whole-cell patch-clamp, CHO cells stably expressing huKv1.3 (Example 8); format: cell-based
T1 construct: host or cells: CHO
Protocol: Knottin Kv 1.3 and ASIC1a blockers expressed in the KnotBody format (see examples 6 and 7) were tested for their ability to inhibit the function of the ion channel targets. The effect of these KnotBodies on cells expressing the human Kv 1.3 (huKv1.3) or human ASIC1a channels was assessed using QPatch automated whole-cell patch-clamp electrophysiology (Sophion).
For the testing of Kv1.3, CHO cells stably expressing huKv1.3 (Charles River Lab) were analysed using the QPatch electrophysiology assay in the presence or absence of the KnotBody fusions or the antibody isotypes (negative) controls. Internal and external physiological solutions were freshly prepared prior to the assay. The extracellular solution contained 145 mM NaCl, 4 mM KCl, 2 mM CaCl2, 1 mM MgCl2, 10 mM HEPES and 10 mM glucose; the pH was adjusted to 7.4 with NaOH; the osmolarity was ~ 305 mOsm/L. The intracellular solution contained: KF (120 mM), KCl (20 mM), HEPES (10 mM) and EGTA (10 mM); the pH was adjusted to 7.2 with KOH; osmolarity was ~ 320 mOsm/L.
A series of depolarising voltage (channel activating) pulses were used to monitor the channel currents upon adding control (extracellular solution) to define a control baseline of current activity. To these measured control currents ascending concentrations of KnotBodies or parental antibody isotypes (control molecules) were applied to the external bathing solution (2.2 µM - 0.5 nM, diluted in the extracellular solution). KnotBodies KB_A12 and KB_A07 (EETI-II fusions) were used as isotype controls for the testing. From a holding voltage of -80 mV a depolarising, activating voltage pulses of +30 or +80 mV were applied for 300 ms, every 5 or 10 seconds. The elicited, maximum outward current values measured during the activating step for each solution exchange period were averaged (n = 3 - 8 for each concentration applied) and plotted as concentration-response curves. KB_A07_ShK, KB_A12_ShK and KB_A07_Kaliotoxin (KTX) fusion proteins all inhibited the huKv1.3 currents in a concentration dependent manner with IC50S of approximately 20 nM, 40 nM and 900 nM respectively.

trypsin = experiment: KnotBody Fab TRF binding assay on biotinylated trypsin; settings: for TRF signal for 0.6 ug/mL Fab: Fab 0.6 ug/mL; for TRF signal for 2.4 ug/mL Fab: Fab 2.4 ug/mL; for TRF signal for 10 ug/mL Fab: Fab 10 ug/mL
Protocol: In order to confirm the trypsin binding ability of KnotBodies in Fab format, purified proteins were tested for binding to trypsin using a TRF binding assay. In this assay binding of KnotBody Fabs ([…]) to biotinylated trypsin (immobilised on streptavidin coated Maxisorp™ plates) was detected using a mouse anti-CH1 antibody followed by a europium conjugated anti-mouse antibody (Table 4). 7 KnotBodies (KB_A04, KB_A01, KB_A05, KB_A07, KB_A08, KB_A10, KB_A12) were chosen for crystallisation. DNA prepared for these clones were transfected into 500 ml HEK-293F cells as described before. Expressed proteins were purified using CaptureSelect IgG-CH1 affinity matrix. Purified proteins were initially subjected to crystallisation trials using commercially available crystallisation screens (Supplier). Well-defined crystals were readily obtained for KB_A12 and KB_A05. Crystallisation conditions for these two clones were further optimised and the following condition was used to generate diffraction quality crystals: 0.1 M MES pH=6.5, 25 %w/v PEG MME 2000 and 0.1 M Tris.Cl, 50% PEG MME, 10 mM NiCl2. Complete diffraction data was collected on these crystals at 100 K under liquid nitrogen stream. Collected data was processed using PROTEUM2 software (Bruker). The crystal structure of the knottin-fused Fab antibodies was resolved using molecular replacement technique^109 using Phenix software v 1.8.1-1168^110. Resulting structure was further refined using Phenix.Refine^111. The templates for molecular replacement were downloaded from PDB website (www.rcsb.org/pdb, PDB codes: 3G04 for light chain and 3QOS for heavy chain). KnotBody KB_A12 and KB_A05 sequences are given below. An additional AlaSer sequence is introduced at the N terminus of the light chain from the Nhe1 site used in cloning.
In order to compare the performance of the KnotBodies with short and long linkers, purified Fabs were tested for binding to trypsin by ELISA. In this assay binding of KnotBody Fabs (at 0.5 µg/ml) to biotinylated trypsin (5 µg/ml immobilised on streptavidin coated Maxisorp™ plates) was detected using a mouse anti-CH1 antibody (Hybridoma Reagent Laboratories) followed by a europium conjugated anti-mouse antibody (Perkin Elmer, Cat. No. AD0124). The trypsin binding capability of KB_A07 and KB_A12 KnotBodies were greatly diminished when the short selected linkers were replaced with long and flexible linkers (FIG. 22).

LOX-1 = LOX-1 (Homo sapiens, UniProt P78380); experiment: Phage TRF binding assay on LOX-1; settings: phage displayed, FIG. 19
Protocol: In order to test the functionality of these adhiron-antibody fusions, monoclonal phage prepared from each clone was assessed for binding to LOX-1 in a TRF binding assay. In this assay, LOX-1 (immobilised directly on Maxisorp™ plates) binding of phage displaying adhiron-antibody fusion was detected using a mouse anti-M13 antibody (GE Healthcare) followed by europium conjugated anti-mouse antibody (Perkin Elmer). Parent KnotBodies KB_A07 and KB_A12 (EETI-II fusions) were included as controls. Proteins cMET-FC, GAS6-CD4, FGFR4-CD4, UPA and B-gal were used to examine non-specific binding.

[1] = Kv1.3 channels, IgG KnotBody, Table 11A

T1 sequence (P22001 whole entry): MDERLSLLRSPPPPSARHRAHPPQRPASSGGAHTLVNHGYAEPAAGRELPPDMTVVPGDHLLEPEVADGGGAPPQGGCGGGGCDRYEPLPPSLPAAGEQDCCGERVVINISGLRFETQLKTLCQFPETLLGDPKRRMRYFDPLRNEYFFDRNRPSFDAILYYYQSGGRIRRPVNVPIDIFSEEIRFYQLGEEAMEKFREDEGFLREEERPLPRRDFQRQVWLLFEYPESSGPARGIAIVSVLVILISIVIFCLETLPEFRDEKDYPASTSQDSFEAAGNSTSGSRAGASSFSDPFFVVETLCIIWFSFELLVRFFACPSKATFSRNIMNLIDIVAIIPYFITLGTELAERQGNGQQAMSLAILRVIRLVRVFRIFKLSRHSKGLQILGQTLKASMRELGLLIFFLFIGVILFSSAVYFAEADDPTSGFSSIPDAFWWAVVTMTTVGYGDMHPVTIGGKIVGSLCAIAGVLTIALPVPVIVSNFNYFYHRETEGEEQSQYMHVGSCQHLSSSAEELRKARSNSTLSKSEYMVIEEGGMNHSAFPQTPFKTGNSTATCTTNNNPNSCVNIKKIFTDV

| Molecule | IC50 (huKv1.3; [1]) | IC50 (huKv1.3; huKv1.3 currents, text of Example 8, approximately) | TRF signal for 0.6 ug/mL Fab (trypsin) | TRF signal for 2.4 ug/mL Fab (trypsin) | TRF signal for 10 ug/mL Fab (trypsin) | binding to LOX-1 (LOX-1) |
| --- | --- | --- | --- | --- | --- | --- |
| KB_A12_ShK: ShK toxin in VL CDR2 of KB_A12, IgG1 (antibody, V domains shown) VH: EVQLVESGGGLVRPGGSLRLSCAASGFTFSSYAMSWVRQAPGKGLEWVSAISGSGGSTYYADSVKGRFTISRDNTKNSLYLQMTSLRADDTAFYYCVKDFGPGYGTGWFDYWGPGTLVTVSS VL: QSVLTQPPSVSEAPRQRVTITCSGSSSNIGNNAVNWYQQLPGKAPKLLIYAAGRRSCIDTIPKSRCTAFQCKHSMKYRLSFCRKTCGTCANSGVSDRFSAAKSGTSASLAINGLRSEDEADYYCAAWDDSLNGYVFGTGTKLTVLG | 20 nM | ~40 nM |  |  |  |  |
| KB_A12: EETI-II knottin fused into VL CDR2, D1A12 VH; parental KnotBody, isotype control (antibody, V domains shown) VH: EVQLVESGGGLVRPGGSLRLSCAASGFTFSSYAMSWVRQAPGKGLEWVSAISGSGGSTYYADSVKGRFTISRDNTKNSLYLQMTSLRADDTAFYYCVKDFGPGYGTGWFDYWGPGTLVTVSS VL: QSVLTQPPSVSEAPRQRVTITCSGSSSNIGNNAVNWYQQLPGKAPKLLIYAAGRCPRILMRCKQDSDCLAGCVCGPNGFCGANSGVSDRFSAAKSGTSASLAINGLRSEDEADYYCAAWDDSLNGYVFGTGTKLTVLGQP | > 10000 nM |  | 102132 | 221989 | 252832 | no detectable binding to the LOX-1 |
| KB_A07: EETI-II knottin fused into VL CDR2, D1A12 VH; parental KnotBody, isotype control (antibody, V domains shown) VH: EVQLVESGGGLVRPGGSLRLSCAASGFTFSSYAMSWVRQAPGKGLEWVSAISGSGGSTYYADSVKGRFTISRDNTKNSLYLQMTSLRADDTAFYYCVKDFGPGYGTGWFDYWGPGTLVTVSS VL: DIQMTQSPSSLSASVGDRVTITCRASQSISSYLNWYQQKPGKAPKLLIYAAGVCPRILMRCKQDSDCLAGCVCGPNGFCGSRSGVPSRFSGSGSGTDFTLTISSLQPEDFATYYCQQGASPPYTFGQGTKVEIKRT | > 10000 nM |  | 107814 | 201003 | 226082 | no detectable binding to the LOX-1 |
